# Test results taken from paper PMC3536657 (PLoS Pathogens, 2013).
# Where a chain is given by its changes, count along the chain named. In names and notes the source's numbering stands.
# B1: mature IgG b12 (antibody, V domains shown)
# VH: QVQLVQSGAEVKKPGASVKVSCQASGYRFSNFVIHWVRQAPGQRFEWMGWINPYNGNKEFSAKFQDRVTFTADTSANTAYMELRSLRSADTAVYYCARVGPYSWDDSPQDNYYMDVWGKGTTVIVSS
# VL: EIVLTQSPGTLSLSPGERATFSCRSSHSIRSRRVAWYQHKPGQAPRLVIHGVSNRASGISDRFSGSGSGTDFTLTITRVEPEDFALYYCQVYGASSYTFGQGTKLERK
# notes: also called mature b12; mature b12 IgG
# B2: b12 IgG, germline heavy chain with S31N/A52P/G53Y/G100W, paired with the mature light chain (antibody, V domains shown)
# VH: QVQLVQSGAEVKKPGASVKVSCKASGYTFTNYAMHWVRQAPGQRLEWMGWINPYNGNTKYSQKFQGRVTITRDTSASTAYMELSSLRSEDTAVYYCARVGPYCWGDSPQDNYYMDVWGKGTTVTVSS
# VL: B1 VL
# B3: b12 IgG, germline heavy chain with G100W, paired with the mature light chain (antibody, V domains shown)
# VH: B2 VH with N31S, P53A, Y54G
# VL: B1 VL
# B4: 3BNC60 chimeric IgG, germline heavy chain with mature light chain (antibody, V domains shown)
# VH: not shown
# VL: DIQMTQSPSSLSARVGDTVTITCQANGYLNWYQQRRGKAPKLLIYDGSKLERGVPARFSGRRWGQEYNLTINNLQPEDVATYFCQVYEFIVPGTRLDLK
# notes: also called gHC/mLC (3BNC60)
# B5: NIH45-46 chimeric IgG, germline heavy chain with mature light chain (antibody, V domains shown)
# VH: not shown
# VL: EIVLTQSPATLSLSPGETAIISCRTSQSGSLAWYQQRPGQAPRLVIYSGSTRAAGIPDRFSGSRWGADYNLSISNLESGDFGVYYCQQYEFFGQGTKVQVD
# B6: germline IgG b12 (antibody, V domains shown)
# VH: B2 VH with N31S, P53A, Y54G, W104G
# VL: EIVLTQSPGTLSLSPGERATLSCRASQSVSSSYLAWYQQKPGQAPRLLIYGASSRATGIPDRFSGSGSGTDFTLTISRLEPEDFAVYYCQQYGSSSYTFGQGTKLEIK
# notes: also called germline b12; soluble germline version of IgG b12
# Legend:
# [1] = target: T1, SF162 gp120 (HIV-1 clade B, isolate SF162, UniProt P19550); experiment: cell-based or functional assay
# [2] = target: T2, SF162 gp140 trimer (HIV-1 clade B, isolate SF162, UniProt P19550, strain); experiment: ELISA; details: both partners purified
# T2 construct: also called trimeric SF162 gp140
# [3] = target: T3, QH0692 gp140 trimer (HIV-1 clade B, isolate QH0692, UniProt Q5G5V7, strain); experiment: ELISA; details: both partners purified
# T3 construct: also called trimeric QH0692 gp140
# [4] = target: 426c gp140 (HIV-1 clade C, 426c, UniProt M4Q8P8, strain); experiment: BLI; antibody-capture: IgG (15 µg/mL in PBS) on anti-human IgG Fc capture biosensors; Env in solution at one concentration (1.2 µM in the legend, 1.02 µM in the methods) in 1x kinetics buffer (PBS, 0.01% BSA, 0.02% Tween 20, 0.005% NaN3); details: both partners purified
# [5] = target: T4, HXB2 gp120 (HIV-1 clade B, isolate HXB2, UniProt P04578); experiment: ELISA; details: both partners purified
# T4 construct: also called HXBc2; HXB2 Env; source: bought: Immune Technologies
# [6] = target: T1, SF162 gp120; experiment: ELISA; details: both partners purified
# [7] = target: T5, QH0692 gp120 (HIV-1 clade B, isolate QH0692, UniProt Q5G5V7, strain); experiment: BLI; details: both partners purified
# T5 construct: also called QH0692 Env; recombinant QH0692 Env; source: bought: Immune Technologies
# [8] = target: Q461e2 gp140 (HIV-1 clade A, Q461e2, UniProt Q8JDJ9, strain); experiment: BLI; antibody-capture: IgG (15 µg/mL in PBS) on anti-human IgG Fc capture biosensors; Env in solution at one concentration (1.2 µM in the legend, 1.02 µM in the methods) in 1x kinetics buffer (PBS, 0.01% BSA, 0.02% Tween 20, 0.005% NaN3); details: both partners purified
# [9] = target: 426c gp140 (HIV-1 clade C, 426c, UniProt M4Q8P8, strain); experiment: as above; details: both partners purified; remark: listed apart in the source
# [10] = target: Q168a2 gp140 (HIV-1 clade A, Q168a2, UniProt Q8JDN0, strain); experiment: as above; details: both partners purified
Binder,binding result [2],binding result [5],binding result [6],binding result [7],other results
B1,binds,–,–,–,"neutralisation of SF162 virions (luciferase reporter cells), IC50 [1]: 0.01 µg/mL; binding result [3]: binds; binding result [4]: binds"
B2,–,binds,no binding (tested: 30 µg/mL),–,–
B3,–,no binding (tested: 30 µg/mL),no binding (tested: 30 µg/mL),–,–
B4,–,–,–,no binding (tested: 100 nM; less than 0.2 nM shift),–
B5,–,–,–,no binding (tested: 100 nM; less than 0.2 nM shift),–
B6,no binding (tested: 30 µg/mL),–,–,–,binding result [8]: no binding (tested: 1.2 µM); binding result [9]: no binding (tested: 1.2 µM); binding result [10]: no binding (tested: 1.2 µM)
